In assay [1] the target is digested β-vignin (β-vignin incubated 30 h with the 6 d.a.i. germinating cowpea seed extract): 27 kDa core with the proteolytic products that stay with it (Vigna unguiculata (cowpea)). In words: SEC; Superdex 75 10/300 GL, 25 mM phosphate buffer pH 7.0, 150 mM NaCl; β-vignin digested 30 h with the 6 d.a.i. extract, 50 μg loaded; eluted fractions on SDS-PAGE (silver stained); digest not purified from the extract.

Assay [2] deals with native β-vignin, the vicilin (7S globulin) storage protein of cowpea (Vigna unguiculata) seeds (Vigna unguiculata (cowpea)). As to the kind of experiment: SEC; Superdex 200 10/300 GL, 25 mM Tris-HCl pH 9.0, 150 mM or 300 mM NaCl; 50 μg β-vignin (0.5 mg/mL) loaded.
Assay [3] has the same target. As to the kind of experiment: SEC; Superdex 75 10/300 GL, 25 mM phosphate buffer pH 7.0, 150 mM NaCl, 0.5 mL/min; peak areas by Multiple Peak Fit; monomer to trimer. (Size exclusion chromatography separates by hydrodynamic size, large species first.)

In assay [1], “digested β-vignin (β-vignin incubated 30 h with the 6 d.a.i. germinating cowpea seed extract): 27 kDa core with the proteolytic products that stay with it (complex)” showed a percent monomer of 90.2% and a percent trimer of 9.8%.

As usually defined, the stoichiometry N is the number of molecules, sites or subunits per partner or assembly. “native β-vignin, the vicilin (7S globulin) storage protein of cowpea (Vigna unguiculata) seeds (natural protein)” had a stoichiometry N in assay [2] of 3. In assay [3], the percent monomer amounted to 80% and the percent trimer is 20%.
